Assay results taken from PMC5549631.

What was measured:
[1] = molecular target: recombinant nucleosome labelled with Oregon Green 488 on histone H4 Q27C (Xenopus) (UniProt P62799); assay: other fluorescence titration
[2] = molecular target: acidic patch mutant nucleosome (H2A E61A, E64A, D90, E92A) (Xenopus) (UniProt P06897)
[3] = molecular target: acidic patch mutant nucleosome (H2A E61A, E64A, D90, E92A) (Xenopus) (UniProt P06897); assay: other fluorescence titration

Kd [1]	fold decrease of nucleosome binding affinity against Set8(153-352) [1]	histone methyltransferase activity on acidic patch mutant nucleosomes [2]	Kd [3]	Substance
1800 nM				Set8(175-352) (from UniProt Q9NQR1-2 175-352) (domain or fragment)
4.5 nM				Set8(153-352) H347F (from UniProt Q9NQR1-2 153-352) (domain or fragment)
2500 nM				Set8(153-352) R188A, R189A (from UniProt Q9NQR1-2 153-352) (domain or fragment)
	2.5 fold			Set8(153-352) R179A, K180A (from UniProt Q9NQR1-2 153-352) (domain or fragment)
7.9 nM		5.4%	1300 nM	Set8(153-352) (from UniProt Q9NQR1-2 153-352) (domain or fragment)
5.3 nM			60 nM	full length Set8 (from UniProt Q9NQR1-2 1-352) (enzyme)
